Source: paper PMC11109196 (Nature Communications, 2024)

Columns and labels:
SF162 gp120 = molecular target: T1, SF162 gp120 (HIV-1 (SF162), UniProt P19550); experiment: flow cytometry on cells; blocking format: HmAb64 added to biotinylated gp120 in the staining of primary human CD4+ T cells; loss of gp120 staining read out (2, 4, 8 ug HmAb64 with 2 ug ADA gp120 in panel b); details: both partners purified
T1 construct: also called SF162 (B)

AD8 gp120 = molecular target: T2, AD8 gp120 (HIV-1 subtype B, AD8, UniProt O40222, strain); experiment: as above; details: both partners purified
T2 construct: also called AD8 (B)

CM244 gp120 = molecular target: T3, CM244 gp120 (HIV-1 isolate CM244 (CRF01_AE; printed …, UniProt Q4QX31, strain); experiment: as above; details: both partners purified
T3 construct: also called CM244 (AE); CM224

MW959 gp120 = molecular target: T4, MW959 gp120 (HIV-1 subtype C, 93MW959 (isolate 959 …, strain)); experiment: as above; details: both partners purified
T4 construct: also called MW959 (C)

[1] = molecular target: gp120 A2 (clade A, 92UG037.8) (HIV-1 isolate 92UG037.8 (clade A), UniProt Q70200, strain); experiment: ELISA; HmAb64 on gp120, gp120-Core or their D368R mutant protein, as previously described; details: both partners purified
[2] = molecular target: T5, wild-type gp120 Env protein, HIV-1 isolate JR-FL (HIV-1 isolate JR-FL, UniProt Q75760, strain); experiment: as above; details: both partners purified
T5 construct: also called JR-FL gp120

[3] = molecular target: T6, wild-type gp120 Env protein, HIV-1 isolate YU2 (HIV-1 isolate YU2, UniProt P35961); experiment: as above; details: both partners purified
T6 construct: also called YU2 gp120

[4] = molecular target: gp120 Czm (clade C, 96ZM652) (HIV-1 subtype C, named 96ZM652; entry …, strain); experiment: as above; details: both partners purified
[5] = molecular target: biotinylated gp120 of HIV-1 SF162 (HIV-1 isolate SF162, UniProt P19550, strain); experiment: flow cytometry on cells; HmAb64 added to biotinylated gp120 and read by the loss of gp120 staining of primary CD4+ T cells; details: both partners purified
[6] = molecular target: T7, biotinylated gp120 of HIV-1 CM244 (HIV-1 isolate CM244 (CRF01_AE; printed …, UniProt Q4QX31, strain); experiment: as above; details: both partners purified
T7 construct: also called CM224 (as printed in the methods)

[7] = molecular target: T8, HIV-1 SF162 Env on infected human CD4+ T cells (HIV-1 isolate SF162, UniProt P19550, strain); experiment: flow cytometry on cells; primary human CD4+ T cells infected with HIV SF162 for 3 days, stained with HmAb64 (2 ug), goat anti-human-PE; details: one partner purified
T8 construct: also called HIV-1 SF162 infected CD4+ T cells; source: primary human CD4+ T cells infected with HIV SF162, on the cell surface

A244 gp120 = A244 gp120 (HIV-1 isolate A244); experiment: SPR; Biacore 3000, CM4 or CM5 chip; gp120 or BG505-SOSIP immobilised by amine coupling to about 750 RU; HBS pH 7.4, 3 mM EDTA, 0.005% Tween-20, 0.05% carboxymethyl-dextran; 25 ul/min, 25 C; details: both partners purified

Measured: binding result

B1: HmAb64 (antibody, V domains shown)
VH: QVQLVQSGAEVKKPGASVKVSCKASGYTFTSYDITWVRQAPGQGLEWMGWISAYNGDTNYAQRLQGRVTMTTDTSTSTAYMELRSLRSDDTAVYYCARAKHTVLVTAMRWFDPWGQGTLVTVSS
VL: DIQMTQSPSSLSASVGDRVTITCRASQSISNYLNWYQQKPGKAPKLLISATSSLQSGVPSRFSGSGSGTDFTLTISSLQPDDFATYYCQQSYSTPWTFGQGTKLEIK
notes: also called HmAb64 mAb; source: Freestyle 293F cells, transfected, purified (Protein A HP columns)
binds: SF162 gp120 | AD8 gp120 | CM244 gp120 | MW959 gp120

B2: HmAb64 (antibody, V domains shown)
VH: QVQLVQSGAEVKKPGASVKVSCKASGYTFTSYDITWVRQAPGQGLEWMGWISAYNGDTNYAQRLQGRVTMTTDTSTSTAYMELRSLRSDDTAVYYCARAKHTVLVTAMRWFDPWGQGTLVTVSS
VL: DIQMTQSPSSLSASVGDRVTITCRASQSISNYLNWYQQKPGKAPKLLISATSSLQSGVPSRFSGSGSGTDFTLTISSLQPDDFATYYCQQSYSTPWTFGQGTKLEIK
notes: also called human IgG (HmAb64); clone #64; source: Freestyle 293F cells, transfected (mAb64-HC/pJW4303 and mAb64-KC/pJW4303), purified from supernatant (Protein A)
binds: [1] | [2] | [3] | [4] | [5] | [6] | [7] | A244 gp120
